Data reported in the nanobody polyreactivity screen of Harvey et al. (2022).

Assay: yeast display, Sf9 membrane polyspecificity reagent, FACS + sequencing; frameworks hold sequencing errors
How it was run: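 Sorting gates, low and high (top ~1%), were placed on anti-HA fluorescence to track expression and on streptavidin fluorescence to track reagent binding. A clone's polyreactivity label is taken from the gate it came out of. The reagent was 10% biotinylated, detergent-solubilized Sf9 membrane, applied for 1 hour at 4 °C to galactose-induced yeast display cells.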

For “QVQLVESGGGLVQAGGSLRLSCAASGRIFYYNAMGWYRPAPGKERELVAAITYIGGNTHYADSVKGRFTISRDNAKYTVYLQMNSLKPEDTAVYYCARGTVLGFYYEYGYWGQGTQVTVSS”, the “polyreactivity (PSR sort gate)” value was “low polyreactivity”.

With “QVHLVESGGGLVQAGGSLRLSCAASGFTFYYYAMGWYRQAPGKERELVATISRSVGSTYYADSVKGRFTISRDNAKNTVYLQMNSLKPEDTAVYYCAVGGYLRSVSYIRLGNYYWGQGTQVSVSS” the “polyreactivity (PSR sort gate)” value was “high polyreactivity”.

In the case of “QVQLVESGGGLVQAGGSLRLSCAASGRTGYMGWYRQAPGKERELVAAITSRGGSTYYADSVKGRFTISRDNAKNTVYLQMNSLKPEDTAVYYCAAPAYHKRTSRGDYWGQGTQVTVSS”, the “polyreactivity (PSR sort gate)” value was “low polyreactivity”.

With “QVQLVESGGGLVQAGGSLRLSCAASGRTFVGYTMGWYRQAPGKERELVAAIDLSDGSTSYADSVKGRFTISRDNAKNTVYFQMNSLKPEDTAVYYCAKTWANVYAGAHDYWGQGTQVTVSS” the “polyreactivity (PSR sort gate)” value was “low polyreactivity”.

In the case of “QVQLVESGGGLVQAGGSLRLSCAASGSTFGPYAMGWYRPAPGKERELVAAITSSGGTTYYADSVKGRFTISRDNAKNTVYLQMNSLKPEDTAVYYCAVDYYGKVGDDYWGQGTQVTVSS”, the “polyreactivity (PSR sort gate)” value was “low polyreactivity”.

With “QVQLVESGGGLVQAGGSLRLSCAASGYIFDRYAMGWYRKAPGKEREMVAPISGRGGSTYYADSVKGRFSISRDNAKNTVFLQMNSLKPEDTAVYYCARDVYVRNGQRARYVSWGQGTQVTVSS” the “polyreactivity (PSR sort gate)” value was “high polyreactivity”.

With “QVQLVASGGGLVQAGGSLRLSCAASGRTSWYYAMGWYRHAPGKERELVAAITASGGSTYADSVKGRFTISRDNAKNTVYLQMNSLKPEDTAVYYCAAERPYSRVGYYYWGQGTQVTVSS” the “polyreactivity (PSR sort gate)” value was “high polyreactivity”.

For “QVQLVESGGGLVQAGGSLRLSCAASGSTFNLYAMGWYRQAPGKERELVASISRSGVSTYYADSVKGRFTISRDNAKNTVYLQMNSLKPEDTAVYYCAVDKVLYRLYPGMDYWGQGTQVTVSS”, the “polyreactivity (PSR sort gate)” value was “low polyreactivity”.

For “QVQLVESGGGLVQAGGSLRLSCAASGFIFGGYPMGWYRQAPGKERELVAAITIRGGSTSYADSVKGRFTISRDIAMNTVYLQMNSLKPEDSAVYYCNRQSRNAGGYYWGQGTQVTVSS”, the “polyreactivity (PSR sort gate)” value was “low polyreactivity”.

With “QVQLVESGGGLVQAGGSLRLSCAASGSTFDYSGMGWDIQAPGKERELVATITRRGGNTYYADSVKGRITISRDNANNTDYLQMNSLKPEDTAVYNCNVTPVRGSPEYGNWGQGTQVTVSS” the “polyreactivity (PSR sort gate)” value was “high polyreactivity”.

For “QVQLVESAGGLVQAGGSLRLSCAPSGFTFALYAMRWYRQAPGNERELVAANTRSGRTKYADSVKGRFTISRDNAKNTVYLQMNSLKPEDTAVYYCAALFRYYVTTRFNYWGQGTQVTVSS”, the “polyreactivity (PSR sort gate)” value was “high polyreactivity”.

For “QVQLVESGGGLVQAGGSLRLSCAASGSIFGNYVMGWYRQAPGKERELVAAIRWTGGSTYYADSVKGRFTISRDNAKNTVYLQMNSLKAEDTAVYYSIADSSDDYDYWGQGTQVTVSS”, the “polyreactivity (PSR sort gate)” value was “low polyreactivity”.

In the case of “QVQLVESGGGLVQAGGSLRLSCAASGITFVPNAMGWYRQAPGKERELVARIDNGVSTNYADSVKGRFTISRDNAKNTVYLQMNSLKPEDTAVYYCAVGYWDSRYRYDWPNSDYWGQGTQVTVSS”, the “polyreactivity (PSR sort gate)” value was “low polyreactivity”.

In the case of “QVHLVESGGGLVQAGGSLRLSCAASGFTFSFYAMGWYRQAPWKEIEFVAAITNSGGSTYYADSVKGRFTISRDNSKNSVYLQMNSLKPEDTAVYYCATKRAWPGYFTYYYWGQGTQVTVSS”, the “polyreactivity (PSR sort gate)” value was “high polyreactivity”.

With “QVQLVESGGGLVQAGCSLRLSCAASGSTFGYYTMGWYRQAPGKERELVAAITRSGGSTYYADSVKGRFTISRDNAKNSVYLQMTSLKPEDTAVYYCAADDYWTTFGYWGLGTQVTVSS” the “polyreactivity (PSR sort gate)” value was “low polyreactivity”.

In the case of “QVQLVESGGGLVQAGGSLRLSCAASGSTFYGYAMGWSRQAPGKERELDAVINYRGDRTYYADSVKGRFTISRDNAKNTVYLQMNSLKPEDTAVYYCAARYRVYYLPGYEYWGQGTQVTVSS”, the “polyreactivity (PSR sort gate)” value was “high polyreactivity”.

For “QVQLVESGGGLVQAGGSLRLSCAASGSIFQYNAMGWYRQAPGKEREFVAAITRGGGTYYADSVKGRFTISRDNAKKTVYLQMNSLKPEDTAVYYCAAQSRTSYRFNYWGQGTQVTVSS”, the “polyreactivity (PSR sort gate)” value was “high polyreactivity”.

In the case of “QVQLVESGGGLVQAGGSLRLSCAASGIIFYYYAMGWYRQAPGKERELVAAISWSGGSTYYADSVKGRFTISRDNAKNTVYLQMNSLKPEDTAVYYCAAAFSPGWWSRHTYDYDYWGQGTQVTVSS”, the “polyreactivity (PSR sort gate)” value was “high polyreactivity”.

With “QVQLVESGGGLVQAGGSLRLSCAASGRTYINNAMGWYRQAPGKERELVAAISRRGGSTYYADSVKGRFTISRDNAKNTVYLQMNSLKPEDTAVSYCAADAFRSQRPYTYDYWGQGTQVTVSS” the “polyreactivity (PSR sort gate)” value was “high polyreactivity”.

For “QVQLVESGGGLVQAGGSLRLSCAASGYTFSRYAMGWYRQAPGKERELVADISRSGGSTDYADSVKGRFTISRDNAKNTVYLQMNSLKPEDTAVYYCAKGSWWGYYSYGFDYWGQGTQVTVSS”, the “polyreactivity (PSR sort gate)” value was “high polyreactivity”.

In the case of “QVQLVESGGGLVQAGGSLRLSCAASGSTIRKYAMGWYRQAPGKERELVAAISARGGSTYYADSVKGRFTISRDNAKNTVYLQMNSLNPEDTAVYYCAADGYRPYSTFDYWGQGTQVTVSS”, the “polyreactivity (PSR sort gate)” value was “high polyreactivity”.

With “QVQLVESGGGLVQAGGSLRLSCAASGIIFKYNVMGWYTQAPGKERELVAAITDSGTSTFYADSVKGRFTISRDNAKNTVSLQMNSLKPEDTAFYYCAADEFSVFTIETYGYDYWGQGTQVTVSS” the “polyreactivity (PSR sort gate)” value was “low polyreactivity”.

For “QVQLVESGGGLVQAGGSLRLSCAASGRIFSYYAMGWYRQAPWKERELVAAISSSGGSTYYADSVKGRFTISRDNAKNTVYLQMNSLKPEDTEVYYCAKLLYGFGRYGYWGQGTQVTVSS”, the “polyreactivity (PSR sort gate)” value was “high polyreactivity”.

In the case of “QVQLVESGGSLVQAGGSLRLSCAASGSTLYYNAMGWYRQAPGKERELVAAISWSGGSTYYADSVKGRFTISRDNAKNTVYLQMNSLKPEDTSVYYCAADQSTVLDVGSWGQGTQVTVSS”, the “polyreactivity (PSR sort gate)” value was “low polyreactivity”.

With “QVQLVESGGGLVQAGGSLRLSCAASGRTFWRYAMGWYRQAPGKERELVARISSGGSTYYADSVKGRFTISRDNAKNTVYLQINSLKPEDTAVYYCAVLSRHRRVPWYRYNYWGQGTQVTVSS” the “polyreactivity (PSR sort gate)” value was “low polyreactivity”.

For “QVLLVESGGGLVQAGGSLRLSCAATGSTFIRNAMGWYSQAPGKERELVAVISSGGSTYYADSVKGRFTISREIAKNTVYLQMNSLKPEDTAVYYCPAGDPQKEDYWGQGTQVTVSS”, the “polyreactivity (PSR sort gate)” value was “low polyreactivity”.

With “QVQLVESGGGLGQAGGSLRLSCAASGLIFNIYARGWYSQAPGKDRELVATIRYSGGSTNYADSVKGRVTISRDNAKNTVNLQMKSLNPEDTAVYYCNAGYYPTGYDYWGQGTQVTVSS” the “polyreactivity (PSR sort gate)” value was “low polyreactivity”.

For “QVQLVESGGGLVQAGGSLRLSCAASGRTYGGNAMGWYRQAPGKERELVAAITVSAGHTYYADSVKGRFTISRDNAKNTVYLQMKSLKPEDTAVYYCAKVYHWYYSYDYWGQGTQVTVSS”, the “polyreactivity (PSR sort gate)” value was “low polyreactivity”.

With “QVQLVESGGGIVQAGGSLRLSCAASGRICIINAMGWYRQATGKERELVAAISTSGGRTYYADSVKGRFTISRDNAKNTVYLQKNSLKPVDTAVYYCNAGRGYRYYRSVGSSPYEYWGQGTQVTVSS” the “polyreactivity (PSR sort gate)” value was “high polyreactivity”.

For “QVQLVESGGGLVQAGGSLRLSCAASVRTFVVYAMGWYRQAPGKEREMVAVISFTGDSTFYADSVKGRFTISRDNAKNTVYLQMNSLKPEDTAVYYCNAGPYTYLHWNQAISRYYYWGQGTQVTVSS”, the “polyreactivity (PSR sort gate)” value was “low polyreactivity”.

With “QVQLVESGGGLVQAGGSLRLSCAASGSTFGLYAMGWYRQAPGKERELVAAITGRASSTYYADSVKGRFTISRDNAKNTVYLQMNSLKPEDTAVYDCAASGFGQISNPRRDYWGQGTQVTVSS” the “polyreactivity (PSR sort gate)” value was “high polyreactivity”.

For “QVQLVESGGGLVQAGASLRLSCAASGSIFVRNAMGWYRQAPGKERELVAAISKRGTSTYFADSVKGRFTISRDNAKNTVYLQMNSLKPEDTAVYYCNAVLSNSRSYLIRLDYWGQGTQVTVSS”, the “polyreactivity (PSR sort gate)” value was “high polyreactivity”.

With “QVQLVESGGGLVQAGGSLRLSCAASGFIFYKYAKGWYRQAPGKEREFVAAITWSGGNTYYADSVKGRFTISRDNAKNTVYLQMNSLKPEDTAVYYCAARDSKWGQGTQVTVSS” the “polyreactivity (PSR sort gate)” value was “low polyreactivity”.

In the case of “QVHLVESGGGLVQAGGSLRLSCAASGSIFYRNAMGWYRPAPGKERELVAAISSDGSTNYADSVKGRFTISRDNEKNTVYLQMNSLKPEDTAVYYCAAPWTQILDYWGQGNQVTVSS”, the “polyreactivity (PSR sort gate)” value was “low polyreactivity”.

With “QVQLVESGGGLVQAGGSLRLSCAASGRIFTIYAMGWYRQAPGKERELVATISRRGGSTYYADSVKGRFTISRDNAKNTVYFQMNSLKPEETAVYYCAADSVITWWAYDYWGQGTQVTVSS” the “polyreactivity (PSR sort gate)” value was “high polyreactivity”.

With “QVHLVESGGGLVQAGGSLRLSCAASGRTFDDYAMGWYRQAPGKERELVAAISSSGGSTYYADSVKGRFTISRDNAKNTVYLQMNSLKPEDTAVYYCAADYDWGYWYDYWGQGTQVTVSS” the “polyreactivity (PSR sort gate)” value was “low polyreactivity”.

With “QVQLVESGGGLVQAGGSLRLSCAASGSIFEPNDMGWYRQAPGKEREFVAAISGSGGSTYYADSVKGRFTISRDNAKNTVYLQINSLKPEDTAVYYCANRGKRSYFRTFYYWGHGTQVTVSS” the “polyreactivity (PSR sort gate)” value was “high polyreactivity”.

In the case of “QVQLVESGGGLVQAGGSLRLSCAASGNIFGRYAMGWYRQAPGKERELVAAISWSGGSTFYADSVKGRFTISRDNAKNTVYLQMNSLKPEDTAVYYCAAEYWVYDSYWFDYDYWGQGTQVTVSS”, the “polyreactivity (PSR sort gate)” value was “high polyreactivity”.

With “QVHLVESGGGLVQAGGSLRLSCAASGRIRFNAMGWYRQAPGKERELVAAITSDGGRTYYADSVKGRFTISRDNAKNTVYLQMNSLKPEDTAVYYCNTDYILWGDYDYWGQGTQVTVSS” the “polyreactivity (PSR sort gate)” value was “low polyreactivity”.

For “QVQLVESVGGLVQAGGSLRLSCAASGTLATYAMGWYRQAHGKERELVAAIRYSDGRTYYADSVKGRFTISRDNAKNTVYLLMNSLKPEDTAVYYCAASFRGRGKKLDYWGQGTQVTVSS”, the “polyreactivity (PSR sort gate)” value was “low polyreactivity”.

With “QVQLVESGGGLVQAGGSLRLTCAASGSIFYRNAMGLYRQAPGKEMELVADISWSGSSTYADSVKGLFTISRDNAKYTVYLHMNTLKPEDTAVYYCAAGGHYYSSPGYNYWGQGTQVTVSS” the “polyreactivity (PSR sort gate)” value was “high polyreactivity”.

With “QVQLVESWGGLVQAGGSLRLSCAASGRIFWAYAMGWYRHAPGKERELVAGITFTGGRTYYADSVKGRFTISRDNAKNTVYLQMNSLKPEDTAVYYCAAAGLDVGRKDRDGYWGQGTQVTVSS” the “polyreactivity (PSR sort gate)” value was “low polyreactivity”.

With “QVQLVVSGGGLVQPGGSLRLSCAATGSTLNSYVMGWYRQAPGKERELVATIRSGSSTNYADSVKGRFTISRDNAKNTVYLLMNSLKPEDTAVYYFAADAYSLCYDSWGQGTLVTVSS” the “polyreactivity (PSR sort gate)” value was “low polyreactivity”.
